Assay results published in US5770691A, “Discriminatory substrates for MMP hydrolysis” (Regents of the University of Minnesota, priority 1995, dated 1998).

Tests used:
[1] = test system: T1, CCC[C@H](NC(=O)[C@H](CCC(=O)O)NC(=O)[C@@H](NC(=O)[C@@H]1CCCN1C(=O)[C@H](CCCCN)NC(=O)[C@@H]1CCCN1C(=O)[C@H](CCCNC(=N)N)NC(=O)Cc1cc(=O)oc2cc(OC)ccc12)C(C)C)C(=O)N[C@@H](Cc1c[nH]c2ccccc12)C(=O)N[C@@H](CCCNC(=N)N)C(=O)N[C@@H](CCCCNc1ccc([N+](=O)[O-])cc1[N+](=O)[O-])C(N)=O; assay: Fluorometric hydrolysis of synthetic Mca/Lys(Dnp) substrates by MMP-3; assay type: biochemical, human
T1 construct: made in house; host or cells: native secreted protein purified from culture medium of human rheumatoid synovial cells
Text: (§1) All MMPs were purified in zymogen form. ProMMP-1 (Suzuki et al., Biochem., 29, 10261 (1990)), proMMP-2 (Okada et al., Eur. J. Biochem., 194, 721 (1990)), and proMMP-3 (Ito et al., Arch. Biochem. Biophys., 267, 211 (1988)) were purified from the culture medium of human rheumatoid synovial cells stimulated with rabbit macrophage-conditioned medium. ProMMP-9 was purified from the culture medium of HT-1080 cells as described in Morodomi et al., Biochem. J., 285, 603 (1992). ProMMP-2 and proMMP-9 were activated by reacting with 1 mM 4-aminophenylmercuric acetate at 37° C. for 45 minutes and 32 hours, respectively. ProMMP-1 was activated by reacting with 1 mM 4-aminophenylmercuric acetate and an equimolar amount of MMP-3 at 37° C. for 6 hours. After activation, MMP-3 was completely removed from MMP-1 by affinity chromatography using an anti-MMP-3 IgG Affi-Gel 10 column. The resin, Affi-Gel 10 (Biorad, Emoryville, Calif.), was coupled to anti-MMP-3 IgG (Okada et al., Annals of Rheumat. Dis., 48, 645 (1989)) per the manufacturer's protocol. Pro-MMP-3 was activated by reacting with 5 μg/mL chymotrypsin at 37° C. for 2 hours. Chymotrypsin was inactivated with 2 mM diisopropylfluorophosphate. The amounts of active MMP-1, MMP-2, and MMP-3 were determined by titration with tissue inhibitor of metalloproteinase-1(TIMP1) over a concentration range of 0.1-3 μg/mL, while the amount of active MMP-9 was determined by titration with TIMP-2 (0.1-3 μg/mL). TIMP-1 was isolated from the medium of HT-1080 cells as described in Morodomi et al., Biochem J., 285, 603 (1992).
(§2) Substrates were prepared as 10 mM stock solutions in dimethylsulfoxide (DMSO). Fluorescent assays were performed at λex =325 nm and λem =393 nm, which should encounter no interference from Trp residues, using a Hitachi fluorescence spectrophotometer F-3010. Initial total hydrolysis assays were run at a substrate concentration of […] to avoid filtering effects. The change in fluorescence at this concentration was 110 based on total hydrolysis of 1 μM substrate. A typical assay was carried out by incubating 100 μL of various concentrations of a substrate with 10 μL of an enzyme solution (2-20 nM) in 50 mM Tris-HCl, pH 7.5, 0.15M NaCl, 10 mM CaCl2, 0.05% Brij 35, 0.02% NaN3. The reaction was stopped by addition of 900 μl of 3% (v/v) glacial acetic acid. MMP-3 activity at pH 6.0 was measured in 50 mM sodium acetate buffer, pH 6.0, instead of Tris-HCl buffer. The amount of substrate hydrolysis was calculated based on the fluorescence values of the Mca-Arg-Pro-Lys-Pro-Gln standard solution after substraction of the reaction blank value (stopping solution added before the enzyme). Individual kinetic parameters (kcat and KM) were determined over a substrate concentration range of 2.5-75 μM and calculated by double reciprocal plots.

[2] = test system: T2, COc1ccc2c(CC(=O)N3CCC[C@H]3C(=O)N[C@@H](CCCCN)C(=O)N3CCC[C@H]3C(=O)N[C@@H](CCC(N)=O)C(=O)N[C@@H](CCC(N)=O)C(=O)N[C@@H](Cc3ccccc3)C(=O)N[C@@H](Cc3ccccc3)C(=O)NCC(=O)N[C@@H](CC(C)C)C(=O)N[C@@H](CCCCNc3ccc([N+](=O)[O-])cc3[N+](=O)[O-])C(=O)NCC(=O)O)cc(=O)oc2c1; assay: as above; assay type: biochemical, human; details: other: MMP-3, 37° C., pH 7.5; 37.0 °C
T2 construct: made in house; host or cells: native secreted protein purified from culture medium of human rheumatoid synovial cells
Text: as §1, §2

[3] = test system: T3, CCC[C@H](NC(=O)[C@H](C)NC(=O)[C@H](Cc1ccc(O)cc1)NC(=O)[C@@H]1CCCN1C(=O)[C@H](CCCCN)NC(=O)[C@@H]1CCCN1C(=O)[C@H](CCCNC(=N)N)NC(=O)Cc1cc(=O)oc2cc(OC)ccc12)C(=O)N[C@@H](Cc1c[nH]c2ccccc12)C(=O)N[C@@H](CCSC)C(=O)N[C@@H](CCCCNc1ccc([N+](=O)[O-])cc1[N+](=O)[O-])C(N)=O; assay: as above; assay type: biochemical, human; details: other: MMP-3, 37° C., pH 7.5; 37.0 °C
T3 construct: made in house; host or cells: native secreted protein purified from culture medium of human rheumatoid synovial cells
Text: as §1, §2

[4] = test system: T4, CCC[C@H](NC(=O)[C@H](CCC(=O)O)NC(=O)[C@@H](NC(=O)[C@@H]1CCCN1C(=O)[C@H](CCCCN)NC(=O)[C@@H]1CCCN1C(=O)[C@H](CCCNC(=N)N)NC(=O)Cc1cc(=O)oc2cc(OC)ccc12)C(C)C)C(=O)N[C@@H](Cc1c[nH]c2ccccc12)C(=O)N[C@@H](CCCNC(=N)N)C(=O)N[C@@H](CCCCNc1ccc([N+](=O)[O-])cc1[N+](=O)[O-])C(N)=O; assay: Fluorometric hydrolysis of synthetic Mca/Lys(Dnp) substrates by MMP-9; assay type: biochemical; details: other: MMP-9, 37° C., pH 7.5
T4 construct: made in house; host or cells: native secreted protein purified from culture medium of HT-1080 cells
Text: as §1, §2

[5] = test system: T5, COc1ccc2c(CC(=O)N3CCC[C@H]3C(=O)N[C@@H](CCCCN)C(=O)N3CCC[C@H]3C(=O)N[C@@H](CCC(N)=O)C(=O)N[C@@H](CCC(N)=O)C(=O)N[C@@H](Cc3ccccc3)C(=O)N[C@@H](Cc3ccccc3)C(=O)NCC(=O)N[C@@H](CC(C)C)C(=O)N[C@@H](CCCCNc3ccc([N+](=O)[O-])cc3[N+](=O)[O-])C(=O)NCC(=O)O)cc(=O)oc2c1; assay: as above; assay type: biochemical; details: other: MMP-9, 37° C., pH 7.5
T5 construct: made in house; host or cells: native secreted protein purified from culture medium of HT-1080 cells
Text: as §1, §2

[6] = test system: T6, CCC[C@H](NC(=O)[C@H](C)NC(=O)[C@H](Cc1ccc(O)cc1)NC(=O)[C@@H]1CCCN1C(=O)[C@H](CCCCN)NC(=O)[C@@H]1CCCN1C(=O)[C@H](CCCNC(=N)N)NC(=O)Cc1cc(=O)oc2cc(OC)ccc12)C(=O)N[C@@H](Cc1c[nH]c2ccccc12)C(=O)N[C@@H](CCSC)C(=O)N[C@@H](CCCCNc1ccc([N+](=O)[O-])cc1[N+](=O)[O-])C(N)=O; assay: as above; assay type: biochemical; details: other: MMP-9, 37° C., pH 7.5
T6 construct: made in house; host or cells: native secreted protein purified from culture medium of HT-1080 cells
Text: as §1, §2

[7] = other: MMP-3, 25° C., pH 7.5, 25.0 °C
[8] = other: MMP-3, 37° C., pH 7.5, 37.0 °C
[9] = other: MMP-3, pH 6.0 (50 mM sodium acetate buffer), 37° C., pH 6.0, 37.0 °C

MMP-3 (Homo sapiens), sequence (chain, as listed by the source): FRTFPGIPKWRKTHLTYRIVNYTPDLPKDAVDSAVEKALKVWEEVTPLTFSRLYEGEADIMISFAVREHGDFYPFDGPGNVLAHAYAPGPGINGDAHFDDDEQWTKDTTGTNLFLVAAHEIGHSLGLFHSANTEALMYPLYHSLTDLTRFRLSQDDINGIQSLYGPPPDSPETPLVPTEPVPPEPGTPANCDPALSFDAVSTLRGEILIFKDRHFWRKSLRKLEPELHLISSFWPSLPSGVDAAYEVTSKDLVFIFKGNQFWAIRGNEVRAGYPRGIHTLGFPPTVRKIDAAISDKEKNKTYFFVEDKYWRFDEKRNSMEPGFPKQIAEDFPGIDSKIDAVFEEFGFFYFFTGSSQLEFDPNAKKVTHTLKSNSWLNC
MMP-9 (Homo sapiens), sequence (chain, as listed by the source): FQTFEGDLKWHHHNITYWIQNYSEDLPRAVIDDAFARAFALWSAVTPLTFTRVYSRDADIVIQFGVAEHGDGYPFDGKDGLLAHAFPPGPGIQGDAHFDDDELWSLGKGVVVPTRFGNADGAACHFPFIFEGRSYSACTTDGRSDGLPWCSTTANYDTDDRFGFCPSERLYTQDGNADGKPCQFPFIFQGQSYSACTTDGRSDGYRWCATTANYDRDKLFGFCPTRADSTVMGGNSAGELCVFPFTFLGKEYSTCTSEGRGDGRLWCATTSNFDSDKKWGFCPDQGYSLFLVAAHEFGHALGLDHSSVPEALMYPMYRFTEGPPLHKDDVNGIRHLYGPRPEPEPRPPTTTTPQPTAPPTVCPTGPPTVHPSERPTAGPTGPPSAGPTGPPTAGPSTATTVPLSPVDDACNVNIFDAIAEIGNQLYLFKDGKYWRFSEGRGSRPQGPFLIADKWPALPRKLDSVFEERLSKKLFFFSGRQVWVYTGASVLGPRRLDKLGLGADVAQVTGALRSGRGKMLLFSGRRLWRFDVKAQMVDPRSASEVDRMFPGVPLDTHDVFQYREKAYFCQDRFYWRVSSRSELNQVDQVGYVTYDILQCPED

For MMP-3 (Homo sapiens), the Km [1, 7] was 20 µM, the kcat [1, 7] was 1.31 S^-1 and the kcat/Km [1, 7] was 65,700 S^-1 M^-1. For the same substance, the Km [1, 8] was 25 µM, the kcat [1, 8] was 5.40 S^-1 and the kcat/Km [1, 8] was 218,000 S^-1 M^-1. The Km [1, 9] was 7.5 µM, the kcat [1, 9] was 2.20 S^-1 and the kcat/Km [1, 9] was 302,000 S^-1 M^-1. For the same substance, the Km [2] was 50 µM, the kcat [2] was 0.53 S^-1 and the kcat/Km [2] was 10,900 S^-1 M^-1. For the same substance, the Km [3] was 66 µM, the kcat [3] was 3.95 S^-1 and the kcat/Km [3] was 59,400 S^-1 M^-1.
In the case of MMP-9 (Homo sapiens), the Km [4] was 28 µM, the kcat [4] was 0.282 S^-1 and the kcat/Km [4] was 10,100 S^-1 M^-1. The Km [5] was 45 µM, the kcat [5] was 0.18 S^-1 and the kcat/Km [5] was 4,000 S^-1 M^-1. For the same substance, the Km [6] was 25 µM, the kcat [6] was 1.38 S^-1 and the kcat/Km [6] was 55,300 S^-1 M^-1.
